Legend:
ob/ob mice = experiment: AAC2, IGFBP4 and AAC2-IGFBP4 treatment of ob/ob mice; assay type: in vivo, mouse; conditions: ELISA, end of study
Experimental: A study was performed in ob/ob mouse model of obesity, insulin resistance, and type 2 diabetes. Treatment groups (n=5) included vehicle (non-treated control), AAC2 nanofiber alone, IGFBP4 peptide alone, and AAC2-IGFBP4 peptide bound to nanofiber. 5-week old male Lep^ob mice (ob/ob mice, Jackson #000632-B6.Cg-Lepob/J, Homozygous for Lepob) were randomized into four groups (n=5/group). After 1 week assimilation period, mice were injected (10 μl/g body weight (BW)) into scapular region every 48 h for 4 weeks with: • Group 1: PBS vehicle control, • Group 2: 1 nmol AAC2/g BW, • Group 3: 0.0187 nmol human insulin-like growth factor binding protein 4 (hIGFBP4, Peprotech #350-05B), or • Group 4: AAC2/hIGFBP4 combination (1 nmol AAC2 and 0.0187 nmol hIGFBP4/g BW were assembled into complex prior to injection)

3T3-L1 preadipocytes = experiment: FD-glucose uptake in 3T3-L1 preadipocytes; assay type: cell-based, mouse; conditions: mouse recombinant IGFBP4; human insulin 10 μg/mL; 90 min
Experimental: Non-differentiated, 90% confluent 3T3-L1 cells were starved with glucose-deprived medium for 40 min. Then cells were treated in the presence and absence of different concentrations of nanoscaffold #2 and bovine insulin (200 μg/mL), all of reagents dissolved in the same glucose-deprived medium but containing fluorescent-D (FD)-glucose for 80 min. Thereafter, the FD glucose uptake was measured according to manufacturer's instructions (Cayman Chemical, USA, cat #600471). […] Non-differentiated, 90% confluent 3T3-L1 cells treated in the presence and absence of different concentrations of nanoscaffold #2 and bovine insulin (10 μg/mL) or mouse epiregulin (EREG, 0.05 μg/mL) and incubated for 24 h. Then cells were starved with glucose-deprived medium for 40 min and, then incubated with fluorescent-D (FD)-glucose for 80 min. Thereafter, the FD glucose uptake was measured according to manufacturer's instructions (Cayman Chemical, USA, cat #600471). Data are shown as percent of uptake in the presence of insulin (100%).
Non-differentiated, 90% confluent 3T3-L1 cells treated in the presence of bovine insulin (10 μg/mL), mouse epiregulin (EREG, 0.05 μg/mL), or their combinations and incubated for 24 h. Then cells were starved with glucose-deprived medium for 40 min and, then incubated with fluorescent-D (FD)-glucose for 80 min. Thereafter, the FD glucose uptake was measured according to manufacturer's instructions (Cayman Chemical, USA, cat #600471).
Non-differentiated, 90% confluent 3T3-L1 cells were starved with glucose-deprived medium for 50 min. Then cells were treated in the presence and absence of different concentrations of mouse recombinant IGFBP4 with and without nanoscaffold #2 and human insulin (10 μg/mL). All of reagents were dissolved in the same glucose-deprived medium but containing fluorescent-D (FD)-glucose for 90 min. Thereafter, the FD glucose uptake was measured according to manufacturer's instructions (Cayman Chemical, USA, cat #600471).
Glucose uptake assay was performed using glucose uptake cell-based assay kit (Cayman Chemical, Ann Arbor, MI). 3T3-L1 or human preadipocytes were cultured at a density of 5×10^4 per well into a 96-well plate (n=7) in high glucose media and grown overnight. Old cell culture medium was removed the next day and washed with PBS to remove residual glucose. Supplied 2-deoxy-2-[(7-nitro-2,1,3-benzoxadiazol-4-yl)amino]-D-glucose) (2-NBDG) was diluted to 150 μg/mL in DMEM medium without glucose, phenol red, L-glutamine, sodium pyruvate, and HEPES (Life technologies, Grand Island, New York). 100 μL of 2-NBDG glucose free medium with or without recombinant EREG and other treatments was added to the plated cells. After incubating at 37° C. for 30 minutes, cells were washed gently two times with 200 μL of glucose assay buffer. 100 μL of the assay buffer was added to each well and measured for fluorescence at an excitation/emission of 485/535 nm.
Fluorescence glucose uptake (FD-glucose assay) was performed as described PMID: 32065973, using insulin, 1.7 μM and different AACs at concentration 0.1 μM.
FD-glucose uptake in mouse 3T3-L1 preadipocytes (n=8 per treatment) treated with vehicle (Veh; PBS, open bar) or hINS (1.7 μM), mouse leptin (mLep; 12.5 nM, hatched bar), or AAC2 (0.1 μM black bar) in the presence and absence of GLUT1 inhibitor (BAY-876; 10 nM in DMSO). Cells were pre-treated with or without BAY-876 for 40 min and then FD glucose and treatment reagents were added for additional 80 min of incubation. Data (%) was normalized to FD-glucose uptake in control (Veh) 3T3-L1 cells without inhibitor (100%). Student's independent t-test.

B1: IGFBP4: recombinant insulin-like growth factor binding protein 4 (protein)
chain: DEAIHCPPCSEEKLARCRPPVGCEELVREPGCGCCATCALGLGMPCGVYTPRCGSGLRCYPPRGVEKPLHTLMHGQGVCMELAEIEAIQESLQPSDKDEGDHPNNSFSPCSAHDRRCLQKHFAKIRDRSTSGGKMKVNGAPREDARPVPQGSCQSELHRALERLAASQSRTHEDLYIIPIPNCDRNGNFHPKQCHPALDGQRGKCWCVDRKTGVKLPGGLEPKGELDCHQLADSFRE
ob/ob mice
  hyperinsulinemia (insulin levels in the blood): reduction
3T3-L1 preadipocytes
  glucose uptake, concentration compared with insulin: improves glucose uptake at 100 lower concentration than insulin
